Laboratory results reported in patent publication US20160312265, “USE OF NUCLEIC ACID AGENTS FOR ULTRA-SENSITIVE DIGITAL DETECTION AND QUANTIFICATION OF TARGET MOLECULES” (Aptitude Medical Systems, Inc., published 2016).

Target: TNFα (tumor necrosis factor alpha) (UniProt P01375 P01375:77-233)
Experiment: antibody-capture / aptamer-detection sandwich in ELISA wells, 5 nM aptamer, eluted at 95 C and counted by digital PCR; PBS, 0.05% Tween-20, 2.5 mM MgCl2, 1 mM CaCl2 wash; no numerical result in text
Settings: tags: Shenandoah Biotechnology 100-111; chain copies: 3 (inferred)
Description: The ELISA wells (Thermo Scientific, Catalog #: 15031) were functionalized with a TNFα antibody (eBioscience, Catalog #: 14-7349-85) at 5 μg/ml in PBS overnight at 4° C. Right before use, the ELISA wells were blocked with 300 μL AptaBuffer (PBS+0.05% Tween-20+2.5 mM MgCl₂+1 mM CaCl₂+1% BSA+0.5 mg/mL Dextran Sulfate+0.1 mg/mL Salmon Sperm DNA) with gentle shaking at ˜500 RPM for at least 30 minutes.
Next, test samples (50 μL) containing the protein of interest (TNFα, Shenandoah Biotechnology, Catalog #: 100-111) were added to the washed ELISA wells and incubated for 1 hour with gentle shaking After the target-capture incubation, the ELISA wells were washed once with PBSMCT (PBS+0.05% Tween-20+2.5 mM MgCl₂+1 mM CaCl₂) and 5 nM of the detection TNFα aptamer was added to the wells and incubated for 30 minutes with gentle shaking. The ELISA plate was then washed 4 times with 300 μl of PBS-MCT after the incubation with the detection aptamer. In an embodiment, the sequence of TNFα aptamer is 5′-[…] […]-3′.
For the elution step, 100 μL of PCR grade water was added to each ELISA well. After heating the plate at 95° C. for 10 minutes, we transfer the 100 μL of eluent containing the detection aptamers into a new tube. The eluents are diluted 10 fold before they are measured by the QuantStudio® 3D Digital PCR System from Life Technologies.

TNFα (tumor necrosis factor alpha), sequence (P01375 77-233, one chain of several): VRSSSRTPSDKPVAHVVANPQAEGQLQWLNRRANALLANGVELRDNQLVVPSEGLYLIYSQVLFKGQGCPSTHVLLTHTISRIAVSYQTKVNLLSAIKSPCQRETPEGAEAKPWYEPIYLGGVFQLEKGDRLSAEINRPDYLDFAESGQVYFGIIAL

B1: TNFα detection aptamer (ssDNA)
DNA: ATCCAGAGTGACGCAGCATGCTTAAGGGGGGGGCGGGTTAAGGGAGTGGGGAGGGAGCTGGTGTGGACACGGTGGCTTAGT
Does B1 bind?
Result: binds
